For the experiment, the target named is cardiac protein phosphatase 1 (type 1 phosphatase activity of mouse hearts) (mouse). Nature of the experiment: cell-based or functional assay.

For the substance “constitutively active, truncated inhibitor-1 (I-T35D; AA 1-65), mouse (from UniProt Q9ERT9 1-65)”, the type 1 phosphatase activity turned out to be 15 % decrease.

The values are drawn from US9114148.
